# Experiment: Bagasse assay in the absence and presence of β-glucosidase (BG)
# Type: biochemical
# Details: variants of T. reesei CBH I; [(Activity without BG)/(Activity with BG)]*100; conversion of glucan after 72 hours
# Experimental: Bagasse Assay: This assay measures the activity of CBH I on bagasse, a lignocellulosic substrate. Reactions were run in 10 ml vials with 5% dilute acid pretreated bagasse (250 mg solids per 5 ml reaction). Each reaction contained 4 mg CBH I enzyme/g solids, 200 mM MES pH 6, kanamycin, and chloramphenicol. Reactions were incubated at 35° C. in hybridization incubators (Robbins Scientific), rotating at 20 RPM. Time points were taken by transferring a sample of homogenous slurry (150 μl) into a 96-well deep well plate and quenching the reaction with stop buffer (450 μl of 500 mM sodium carbonate, pH 10). Time point measurements were taken every 24 hours for 72 hours.
# Cellobiose Tolerance Assays (or Cellobiose Inhibition Assays): Tolerance to cellobiose (or inhibition caused by cellobiose) was tested in two ways in the CBH I assays. A direct-dose tolerance method can be applied to all of the CBH I assays (i.e., 4-MUL, PASC, and/or bagasse assays), and entails the exogenous addition of a known amount of cellobiose into assay mixtures. A different indirect method entails the addition of an excess amount of β-glucosidase (BG) to PASC and bagasse assays (typically, 1 mg β-glucosidase/g solids loaded). BG will enzymatically hydrolyze the cellobiose generated during these assays; therefore, CBH I activity in the presence of BG can be taken as a measure of activity in the absence of cellobiose. Furthermore, when activity in the presence and absence of BG are similar, this indicates tolerance to cellobiose. […]
# FIGS. 4 and 5 show bar graph data for the bagasse assay of wild type T. reesei CBH I vs. the variants. In FIG. 4, bars represent relative activity, normalized to wild type activity in the absence of cellobiose (WT+BG=1). In FIG. 5, bars represent tolerance to cellobiose, as represented by the ratio of activity in the presence of accumulating cellobiose (−BG) to that of activity in the absence of cellobiose (+BG); ratios close to 1 indicate greater tolerance to cellobiose.
row,Molecule,Tolerance to cellobiose accumulation % Activity in Bagasse Assay (−/+BG)
1,"R268A/R411A: T. reesei CBH I (SEQ ID NO:2) with R268A and R411A substitutions (protein, listed as Trichoderma reesei) MYRKLAVISAFLATARAQSACTLQSETHPPLTWQKCSSGGTCTQQTGSVVIDANWRWTHATNSSTNCYDGNTWSSTLCPDNETCAKNCCLDGAAYASTYGVTTSGNSLSIGFVTQSAQKNVGARLYLMASDTTYQEFTLLGNEFSFDVDVSQLPCGLNGALYFVSMDADGGVSKYPTNTAGAKYGTGYCDSQCPRDLKFINGQANVEGWEPSSNNANTGIGGHGSCCSEMDIWEANSISEALTPHPCTTVGQEICEGDGCGGTYSDNAYGGTCDPDGCDWNPYRLGNTSFYGPGSSFTLDTTKKLTVVTQFETSGAINRYYVQNGVTFQQPNAELGSYSGNELNDDYCTAEEAEFGGSSFSDKGGLTQFKKATSGGMVLVMSLWDDYYANMLWLDSTYPTNETSSTPGAVAGSCSTSSGVPAQVESQSPNAKVTFSNIKFGPIGSTGNPSGGNPPGGNPPGTTTTRRPATTTGSSPGPTQSHYGQCGGIGYSGPTVCASGTTCQVLNPYYSQCL",95%
2,"R268K: T. reesei CBH I (SEQ ID NO:2) with R268K substitution (protein, listed as Trichoderma reesei) MYRKLAVISAFLATARAQSACTLQSETHPPLTWQKCSSGGTCTQQTGSVVIDANWRWTHATNSSTNCYDGNTWSSTLCPDNETCAKNCCLDGAAYASTYGVTTSGNSLSIGFVTQSAQKNVGARLYLMASDTTYQEFTLLGNEFSFDVDVSQLPCGLNGALYFVSMDADGGVSKYPTNTAGAKYGTGYCDSQCPRDLKFINGQANVEGWEPSSNNANTGIGGHGSCCSEMDIWEANSISEALTPHPCTTVGQEICEGDGCGGTYSDNKYGGTCDPDGCDWNPYRLGNTSFYGPGSSFTLDTTKKLTVVTQFETSGAINRYYVQNGVTFQQPNAELGSYSGNELNDDYCTAEEAEFGGSSFSDKGGLTQFKKATSGGMVLVMSLWDDYYANMLWLDSTYPTNETSSTPGAVRGSCSTSSGVPAQVESQSPNAKVTFSNIKFGPIGSTGNPSGGNPPGGNPPGTTTTRRPATTTGSSPGPTQSHYGQCGGIGYSGPTVCASGTTCQVLNPYYSQCL",92%
3,"R268K/R411K: T. reesei CBH I (SEQ ID NO:2) with R268K and R411K substitutions (protein, listed as Trichoderma reesei) MYRKLAVISAFLATARAQSACTLQSETHPPLTWQKCSSGGTCTQQTGSVVIDANWRWTHATNSSTNCYDGNTWSSTLCPDNETCAKNCCLDGAAYASTYGVTTSGNSLSIGFVTQSAQKNVGARLYLMASDTTYQEFTLLGNEFSFDVDVSQLPCGLNGALYFVSMDADGGVSKYPTNTAGAKYGTGYCDSQCPRDLKFINGQANVEGWEPSSNNANTGIGGHGSCCSEMDIWEANSISEALTPHPCTTVGQEICEGDGCGGTYSDNKYGGTCDPDGCDWNPYRLGNTSFYGPGSSFTLDTTKKLTVVTQFETSGAINRYYVQNGVTFQQPNAELGSYSGNELNDDYCTAEEAEFGGSSFSDKGGLTQFKKATSGGMVLVMSLWDDYYANMLWLDSTYPTNETSSTPGAVKGSCSTSSGVPAQVESQSPNAKVTFSNIKFGPIGSTGNPSGGNPPGGNPPGTTTTRRPATTTGSSPGPTQSHYGQCGGIGYSGPTVCASGTTCQVLNPYYSQCL",94%
4,"R268K/R411A: T. reesei CBH I (SEQ ID NO:2) with R268K and R411A substitutions (protein, listed as Trichoderma reesei) MYRKLAVISAFLATARAQSACTLQSETHPPLTWQKCSSGGTCTQQTGSVVIDANWRWTHATNSSTNCYDGNTWSSTLCPDNETCAKNCCLDGAAYASTYGVTTSGNSLSIGFVTQSAQKNVGARLYLMASDTTYQEFTLLGNEFSFDVDVSQLPCGLNGALYFVSMDADGGVSKYPTNTAGAKYGTGYCDSQCPRDLKFINGQANVEGWEPSSNNANTGIGGHGSCCSEMDIWEANSISEALTPHPCTTVGQEICEGDGCGGTYSDNKYGGTCDPDGCDWNPYRLGNTSFYGPGSSFTLDTTKKLTVVTQFETSGAINRYYVQNGVTFQQPNAELGSYSGNELNDDYCTAEEAEFGGSSFSDKGGLTQFKKATSGGMVLVMSLWDDYYANMLWLDSTYPTNETSSTPGAVAGSCSTSSGVPAQVESQSPNAKVTFSNIKFGPIGSTGNPSGGNPPGGNPPGTTTTRRPATTTGSSPGPTQSHYGQCGGIGYSGPTVCASGTTCQVLNPYYSQCL",102%
5,"R268A: T. reesei CBH I (SEQ ID NO:2) with R268A substitution (protein, listed as Trichoderma reesei) MYRKLAVISAFLATARAQSACTLQSETHPPLTWQKCSSGGTCTQQTGSVVIDANWRWTHATNSSTNCYDGNTWSSTLCPDNETCAKNCCLDGAAYASTYGVTTSGNSLSIGFVTQSAQKNVGARLYLMASDTTYQEFTLLGNEFSFDVDVSQLPCGLNGALYFVSMDADGGVSKYPTNTAGAKYGTGYCDSQCPRDLKFINGQANVEGWEPSSNNANTGIGGHGSCCSEMDIWEANSISEALTPHPCTTVGQEICEGDGCGGTYSDNAYGGTCDPDGCDWNPYRLGNTSFYGPGSSFTLDTTKKLTVVTQFETSGAINRYYVQNGVTFQQPNAELGSYSGNELNDDYCTAEEAEFGGSSFSDKGGLTQFKKATSGGMVLVMSLWDDYYANMLWLDSTYPTNETSSTPGAVRGSCSTSSGVPAQVESQSPNAKVTFSNIKFGPIGSTGNPSGGNPPGGNPPGTTTTRRPATTTGSSPGPTQSHYGQCGGIGYSGPTVCASGTTCQVLNPYYSQCL",86%
6,"R268A/R411K: T. reesei CBH I (SEQ ID NO:2) with R268A and R411K substitutions (protein, listed as Trichoderma reesei) MYRKLAVISAFLATARAQSACTLQSETHPPLTWQKCSSGGTCTQQTGSVVIDANWRWTHATNSSTNCYDGNTWSSTLCPDNETCAKNCCLDGAAYASTYGVTTSGNSLSIGFVTQSAQKNVGARLYLMASDTTYQEFTLLGNEFSFDVDVSQLPCGLNGALYFVSMDADGGVSKYPTNTAGAKYGTGYCDSQCPRDLKFINGQANVEGWEPSSNNANTGIGGHGSCCSEMDIWEANSISEALTPHPCTTVGQEICEGDGCGGTYSDNAYGGTCDPDGCDWNPYRLGNTSFYGPGSSFTLDTTKKLTVVTQFETSGAINRYYVQNGVTFQQPNAELGSYSGNELNDDYCTAEEAEFGGSSFSDKGGLTQFKKATSGGMVLVMSLWDDYYANMLWLDSTYPTNETSSTPGAVKGSCSTSSGVPAQVESQSPNAKVTFSNIKFGPIGSTGNPSGGNPPGGNPPGTTTTRRPATTTGSSPGPTQSHYGQCGGIGYSGPTVCASGTTCQVLNPYYSQCL",94%
7,"R411K: T. reesei CBH I (SEQ ID NO:2) with R411K substitution (protein, listed as Trichoderma reesei) MYRKLAVISAFLATARAQSACTLQSETHPPLTWQKCSSGGTCTQQTGSVVIDANWRWTHATNSSTNCYDGNTWSSTLCPDNETCAKNCCLDGAAYASTYGVTTSGNSLSIGFVTQSAQKNVGARLYLMASDTTYQEFTLLGNEFSFDVDVSQLPCGLNGALYFVSMDADGGVSKYPTNTAGAKYGTGYCDSQCPRDLKFINGQANVEGWEPSSNNANTGIGGHGSCCSEMDIWEANSISEALTPHPCTTVGQEICEGDGCGGTYSDNRYGGTCDPDGCDWNPYRLGNTSFYGPGSSFTLDTTKKLTVVTQFETSGAINRYYVQNGVTFQQPNAELGSYSGNELNDDYCTAEEAEFGGSSFSDKGGLTQFKKATSGGMVLVMSLWDDYYANMLWLDSTYPTNETSSTPGAVKGSCSTSSGVPAQVESQSPNAKVTFSNIKFGPIGSTGNPSGGNPPGGNPPGTTTTRRPATTTGSSPGPTQSHYGQCGGIGYSGPTVCASGTTCQVLNPYYSQCL",89%
8,"R411A: T. reesei CBH I (SEQ ID NO:2) with R411A substitution (protein, listed as Trichoderma reesei) MYRKLAVISAFLATARAQSACTLQSETHPPLTWQKCSSGGTCTQQTGSVVIDANWRWTHATNSSTNCYDGNTWSSTLCPDNETCAKNCCLDGAAYASTYGVTTSGNSLSIGFVTQSAQKNVGARLYLMASDTTYQEFTLLGNEFSFDVDVSQLPCGLNGALYFVSMDADGGVSKYPTNTAGAKYGTGYCDSQCPRDLKFINGQANVEGWEPSSNNANTGIGGHGSCCSEMDIWEANSISEALTPHPCTTVGQEICEGDGCGGTYSDNRYGGTCDPDGCDWNPYRLGNTSFYGPGSSFTLDTTKKLTVVTQFETSGAINRYYVQNGVTFQQPNAELGSYSGNELNDDYCTAEEAEFGGSSFSDKGGLTQFKKATSGGMVLVMSLWDDYYANMLWLDSTYPTNETSSTPGAVAGSCSTSSGVPAQVESQSPNAKVTFSNIKFGPIGSTGNPSGGNPPGGNPPGTTTTRRPATTTGSSPGPTQSHYGQCGGIGYSGPTVCASGTTCQVLNPYYSQCL",94%

# Source: US9096871B2, “Variant CBH I polypeptides with reduced product inhibition” (BP Corporation North America Inc., priority 2010, dated 2015)
